Experimental data as given in PMC3072069.

B1: ACGT (dsDNA)
DNA 1: GCCAACGTTGGC
DNA 2: GCCAACGTTGGC
B2: TCGT (dsDNA)
DNA 1: GCCATCGTTGGC
DNA 2: GCCAACGATGGC
B3: TCGA (dsDNA)
DNA 1: GCCATCGATGGC
DNA 2: GCCATCGATGGC
B4: ACGG (dsDNA)
DNA 1: GCCAACGGTGGC
DNA 2: GCCACCGTTGGC
B5: GCGG (dsDNA)
DNA 1: GCCAGCGGTGGC
DNA 2: GCCACCGCTGGC
B6: CCGG1 (dsDNA)
DNA 1: GCCACCGGTGGC
DNA 2: GCCACCGGTGGC
B7: GC (GGCC), no CpG (dsDNA)
DNA 1: GCCAGGCCTGGC
DNA 2: GCCAGGCCTGGC
B8: CCGG2 (dsDNA)
DNA 1: GCCCCCGGGGGC
DNA 2: GCCCCCGGGGGC

Legend:
CFP1 CXXC domain [1] = molecular target: T1, CFP1 CXXC domain (Homo sapiens, UniProt Q9P0U4 161-222); assay: crystal structure
T1 sequence (Q9P0U4 161-222): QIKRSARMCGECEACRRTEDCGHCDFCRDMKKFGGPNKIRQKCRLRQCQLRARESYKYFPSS

CFP1 CXXC domain [2] = molecular target: T1, CFP1 CXXC domain; assay: ITC
CFP1 CXXC R213A = CFP1 CXXC R213A (Homo sapiens, UniProt Q9P0U4 161-222, R213A); assay: ITC
Sequence of CFP1 CXXC R213A (Q9P0U4 161-222 R213A): as the sequence (Q9P0U4 161-222) above, with R53A counted along it

CFP1 CXXC Y216A = CFP1 CXXC Y216A (Homo sapiens, UniProt Q9P0U4 161-222, Y216A); assay: ITC
Sequence of CFP1 CXXC Y216A (Q9P0U4 161-222 Y216A): as the sequence (Q9P0U4 161-222) above, with Y56A counted along it

[3] = molecular target: CFP1 CXXC domain, longer construct (Homo sapiens, UniProt Q9P0U4 152-222); assay: ITC
Sequence of CFP1 CXXC domain, longer construct (Q9P0U4 152-222): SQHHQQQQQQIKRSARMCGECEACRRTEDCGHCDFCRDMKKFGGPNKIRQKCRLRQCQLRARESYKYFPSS

CFP1 CXXC domain [4] = molecular target: T1, CFP1 CXXC domain; assay: EMSA

Binder | binding result (CFP1 CXXC domain [1]) | Kd (CFP1 CXXC domain [2]) [µM] | also measured
B1 | binds | – | –
B2 | binds | – | –
B3 | binds | – | –
B4 | – | 2.5 ± 0.2 | –
B5 | – | 3 ± 0.2 | –
B6 | – | 3.5 ± 0.3 | Kd (CFP1 CXXC R213A): 179 ± 30 µM; Kd (CFP1 CXXC Y216A): 11 ± 2 µM; Kd [3]: 2.7 ± 0.3 µM
B7 | – | – | binding result (CFP1 CXXC domain [4]): no binding
B8 | – | 4.4 ± 0.3 | –
